Legend:
HLA-A*02:07 = assay: IEDB peptide-MHC binding, purified MHC/competitive/radioactivity; filed as Kd, often an IC50 or EC50 that approximates it; ≥ and ≤ were set here for values at or beyond the usual limits of such assays
HLA-A*02:01 = assay: as above
[1] = source organism: Hepatitis B virus
[2] = source organism: Hepatitis B virus adr4
[3] = source organism: Mycobacterium tuberculosis

Kd (HLA-A*02:01; source organism: Homo sapiens) | Kd (HLA-A*02:07; source organism: Homo sapiens) | Sequence | further results
– | – | YMDDVVLGV | Kd (HLA-A*02:07; [1]): 0.092 µM
– | – | LLWKGEGAVV | Kd (HLA-A*02:01; source organism: HIV-1 M:B_MN): 0.111 µM; Kd (HLA-A*02:07; source organism: HIV-1 M:B_MN): 4.15 µM
– | – | QLDPARDVL | Kd (HLA-A*02:07; [2]): ≥ 30 µM
– | – | SLDSWWTSV | Kd (HLA-A*02:01; [1]): 0.05 µM; Kd (HLA-A*02:07; [1]): 0.236 µM
– | – | WVDLRSLFL | Kd (HLA-A*02:01; source organism: HIV-1 M:B_MN): 16.7 µM; Kd (HLA-A*02:07; source organism: HIV-1 M:B_MN): ≥ 26.9 µM
≥ 30 µM | ≥ 30 µM | NLDRSNDKV | –
≥ 30 µM | ≥ 30 µM | TLPSWATEDT | –
– | – | LLPFVQWFV | Kd (HLA-A*02:01; [1]): 0.0086 µM; Kd (HLA-A*02:07; [1]): 0.088 µM
– | – | RLPLVLPAV | Kd (HLA-A*02:01; [3]): 0.0052 µM; Kd (HLA-A*02:07; [3]): 0.0089 µM
0.096 µM | 5.97 µM | ALDVYNGLL | –
– | – | ILKEPVHGV | Kd (HLA-A*02:07; source organism: HIV-1 M:B_MN): ≥ 30 µM
– | 1.4 µM | GMPEGDLVYV | –
– | ≥ 23.3 µM | ALAETSYVKV | –
– | – | YLDLALMSV | Kd (HLA-A*02:01; [3]): 0.0056 µM; Kd (HLA-A*02:07; [3]): 0.044 µM
≥ 30 µM | ≥ 30 µM | LTDAVKVMDL | –
≥ 30 µM | ≥ 30 µM | QIPSYKKLI | –
– | – | KLPQLCTEL | Kd (HLA-A*02:07; source organism: Human papillomavirus 16): 2.66 µM
≥ 30 µM | 6.64 µM | AAPLILSRI | –
– | ≥ 30 µM | LLFFWLDRSV | –
– | 0.548 µM | RMPEAAPPV | –
– | – | YTAFTIPSI | Kd (HLA-A*02:07; source organism: HIV-1 M:B_MN): ≥ 30 µM
– | – | LVPFVQWFV | Kd (HLA-A*02:07; [2]): 2.53 µM
– | 1.05 µM | YLQLVFGIEV | –
0.068 µM | 6.48 µM | CILESLFRA | –
1.61 µM | 1.56 µM | SLDLASLIL | –

Reference: the Immune Epitope Database (IEDB)
